Tests used:
[1] = target: T1, VZV glycoprotein E, full-length gE ectodomain (gE_FL) (Varicella-zoster virus; strain not …, UniProt P09259); assay: BLI; Octet Red96; Fabs loaded onto FAB2G biosensors (0.5 to 1.0 nm), gE as analyte at 25 nM to 1.6 nM; 1 x PBS with 1% BSA; conditions: both partners purified
T1 construct: Varicella zoster virus glycoprotein E (gE), 'full-length gE ectodomain', includes the disordered N-terminal region (residues 1-115); The construct used in the HPLC-SEC binning is only called 'VZV gE'; also called FL gE; VZV gE; source: Expi293 cells, transfected, purified from culture supernatant (HisTrap, Superdex 200 SEC)
T1 sequence (P09259 whole entry, looked up, the tested form may be a part): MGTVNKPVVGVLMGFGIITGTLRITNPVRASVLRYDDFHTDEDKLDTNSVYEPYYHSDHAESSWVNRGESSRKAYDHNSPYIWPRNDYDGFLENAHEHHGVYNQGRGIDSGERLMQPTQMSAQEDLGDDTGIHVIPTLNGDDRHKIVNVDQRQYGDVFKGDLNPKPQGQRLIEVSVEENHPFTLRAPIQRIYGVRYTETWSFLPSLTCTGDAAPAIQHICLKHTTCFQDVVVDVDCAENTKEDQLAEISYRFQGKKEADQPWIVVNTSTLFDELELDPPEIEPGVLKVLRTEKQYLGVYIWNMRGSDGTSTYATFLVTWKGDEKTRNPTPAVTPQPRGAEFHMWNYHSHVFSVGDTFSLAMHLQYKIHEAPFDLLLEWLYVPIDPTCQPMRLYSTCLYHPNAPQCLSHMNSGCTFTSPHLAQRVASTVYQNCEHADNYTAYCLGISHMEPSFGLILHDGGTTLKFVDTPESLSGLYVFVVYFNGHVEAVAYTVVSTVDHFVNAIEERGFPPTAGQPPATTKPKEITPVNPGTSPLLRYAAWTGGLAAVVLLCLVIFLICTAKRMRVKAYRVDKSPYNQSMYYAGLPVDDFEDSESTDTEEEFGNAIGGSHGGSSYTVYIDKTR

[2] = target: T1, VZV glycoprotein E, full-length gE …; assay: SEC; HPLC-SEC epitope binning: VZV gE mixed with primary Fab at mass ratio 1:3 for 10 min at room temperature, then with secondary Fab at the same ratio; Superdex 200 Increase 3.2/300; conditions: both partners purified

| Binder | binding result [1] | binding result [2] |
| --- | --- | --- |
| Fab 1A2 (recombinant Fab of human anti-gE antibody 1A2, elicited by ZVL vaccination) (Fab, V domains shown, source: HEK293 Expi cells, transient, purified (StrepTrap HP, SEC)) VH: EVQLVQSGAEMKKPGASVKVSCKTSGYVFNEYYIHWVRQAPGQGLEWLGRINPNSGDANYAPKFQGRVTLTRDTSIRTYFMELNRLRSDDTAVYYCARIMYFEYDSWSDYWGQGTLVTVSS VL: DIQMTQSPSSLSASVGDRVTITCRASQSIRSNLNWYQQKPGKAPNVLIYATSSLQSGVPSRFSGSGSGTDFTLTIRSLQPEDFATYYCQQSYSLPWTFGQGTKVEIK | binds | – |
| Fab 5A2 (recombinant Fab of human anti-gE antibody 5A2, elicited by ZVL vaccination) (Fab, V domains shown, also called 5A2 Fab; source: HEK293 Expi cells, transient, purified (StrepTrap HP, SEC)) VH: QVQLQESGPGLVKPSETLSLTCIVSGGSISRYYWSWIRQPPGRGLEWIGNIYYTGTTNYNPSLQSRVTISLDTSKNQFSLRLTSVTAADTAVYYCARIGGVSFGERPIDYWGQGTLVTVSS VL: DIQMTQSPSSLSASVGDRVTITCRASQTISTYLNWYQQKPGKAPKLLIYAASTLQSGVPSRFSGSGSGTDFTLTITSLQPEDFAAYYCQQSYSIPLTFGGGTKVEIK | binds | – |
| Fab 1E3 (recombinant Fab of human anti-gE antibody 1E3, elicited by ZVL vaccination) (Fab, V domains shown, also called 1E3 Fab; source: HEK293 Expi cells, transient, purified (StrepTrap HP, SEC)) VH: QVQLQESGPGLVKPSQTLSLTCTVSGGSISSNDYYWTWIRQSPGKGLEWIGFISYNGDTYYNPSLKRRGTISVDTSKIQFSLRLSSVTAADTAVYYCARVRTSSTTSYYFDYWGQGTLVTVSS VL: DIQMTQSPSSLSASVGDRVTITCRASQGIRNYLNWYQQKPGKAPMLLIYGASSLQNGVPSRFSGSGSGTEFTLTISSLQPEDFATYYCQQSYRTLTFGPGTKVDIK | binds | – |
| Fab 1E8 (recombinant Fab of human anti-gE antibody 1E8, elicited by ZVL vaccination) (Fab, V domains shown, source: HEK293 Expi cells, transient, purified (StrepTrap HP, SEC)) VH: QVQLQESGPGLVRPSQTLSLTCTVSGGSITSGSFYWSWVRQSAGKGLEWIGRIFKTGSTTYKPSLKSRVTMSVDTSKNQFSLKLSSVTATDTAVYFCARAPFYNDFSGYSYYFDYWGQGTLVTVSS VL: QSVLTQPPSASGTPGQRVTISCSGSSSDIGPNTVHWYRQVPGTAPTLLIYSDNQRPSGVPARFSGSRSGTSASLAISGLQSEDEAIYYCAAWDDSLNPLYVFGTGTKVTVL | – | binds |

Source: publication PMC11511291, “Structures of the Varicella Zoster Virus Glycoprotein E and Epitope Mapping of Vaccine-Elicited Antibodies” (Vaccines, 2024)
